Substrate in this data set: Oc1ccc(Cc2nc3c(Cc4ccccc4)nc(-c4ccc(O)cc4)cn3c2O)cc1
The data set can be described thus: luminescence, extrapolated peak intensity, Hill fit. The format is biochemical, Gaussia princeps (in: crustaceans). The note with it: free GLuc 0.05 µM, PBS, O2 as co-substrate, 0.1-30 µM CLZ.

B1: Gaussia luciferase (GLuc) (Gaussia princeps (in: crustaceans); M127L/M60L) (protein)
chain: KPTENNEDFNIVAVASNFATTDLDADRGKLPGKKLPLEVLKELEANARKAGCTRGCLICLSHIKCTPKMKKFIPGRCHTYEGDKESAQGGIGEAIVDIPEIPGFKDLEPLEQFIAQVDLCVDCTTGCLKGLANVQCSDLLKKWLPQRCATFASKIQGQVDKIKGAGGD
Regarding B1, the K0.5 was 9.8 (95% CI [6.2 µM, 43.1 µM]) µM.

Values taken from PMC12718255, “Quantitative assessment of porin-mediated solute transport in biomimetic membranes” (Applied Microbiology and Biotechnology, 2025).
